Experimental data reported in PMC3299563, “Salt Bridges Regulate Both Dimer Formation and Monomeric Flexibility in HdeB and May Have a Role in Periplasmic Chaperone Function” (Journal of Molecular Biology, 2011).
Changes are numbered by the printed parent chain. Names and notes keep the numbering of the source.

What was measured:
[1] = molecular target: HdeB E41Q, C-terminal His6 E41Q (UniProt P0AET2); test: Intrinsic tryptophan fluorescence (emission maximum, intensity, acrylamide Stern-Volmer quenching constant, steady-state anisotropy) as a function of pH; details: pH 1.5-7.5; 20 °C; Not stated as a number. It varies with the McIlvaine mixing ratio; 10 mM KCl below pH 2.6.; McIlvaine buffer (mixtures of 0.1 M citric acid and 0.2 M Na2HPO4) for pH 2.6-7; 10 mM KCl adjusted with HCl for more ac
[2] = molecular target: Asp76 (UniProt position 76, TLNETDLTQIP); test: fluorescence; details: 20 °C; not stated (McIlvaine buffer: mixtures of 0.1 M citric acid and 0.2 M Na2HPO4; 10 mM KCl adjusted with HCl for more acid solutions); McIlvaine buffer (citric acid / Na2HPO4) for pH 2.6-7; 10 mM KCl/HCl for more acid solutions; 50 uM protein, no ligand; dimer at neutral pH, monomer below about pH 3
[3] = molecular target: HdeB (acid stress chaperone HdeB), wild type, C-terminal His6 (UniProt P0AET2); test: Intrinsic tryptophan fluorescence (emission maximum, intensity, acrylamide Stern-Volmer quenching constant, steady-state anisotropy) as a function of pH; details: pH 1.5-7.5; 20 °C; Not stated as a number. It varies with the McIlvaine mixing ratio; 10 mM KCl below pH 2.6.; McIlvaine buffer (mixtures of 0.1 M citric acid and 0.2 M Na2HPO4) for pH 2.6-7; 10 mM KCl adjusted with HCl for more ac
[4] = molecular target: the molecule itself; test: SEC; gel filtration at neutral pH (pH 7)
[5] = molecular target: the molecule itself; test: other fluorescence titration; intrinsic tryptophan fluorescence (emission maximum, acrylamide quenching, anisotropy) against pH 1.5 to 7.5; 50 μM HdeB, McIlvaine buffer, 20 °C; apparent pKa; neutral side of the transition
[6] = molecular target: the molecule itself; test: crystal structure; methylated HdeB-His6 at 15 mg/ml; 50% (v/v) polyethylene glycol 400, 0.1 M acetate pH 4.5, 0.2 M Li2SO4; 1.5 Å; dimer found with PISA
[7] = molecular target: the molecule itself; test: other fluorescence titration; emission maximum against HdeB concentration (1-100 μM, as monomers) at pH 7.5; dimer to monomers

For HdeB E41Q, C-terminal His6 E41Q, the “shift of the apparent pKa of dimer dissociation relative to wild type (50 uM)” value [1] was “apparent pKa ∼ 0.5 pH units higher than that of wild type”.

“Acid stress chaperone HdeB (HdeB-His6 WT) (Escherichia coli)” was tested, and the pKa [2] was 2.9.

For “HdeB (acid stress chaperone HdeB), wild type, C-terminal His6”, the “effective pKa of dimer dissociation (midpoint of the dimer-to-monomer transition at 50 uM)” value [3] was “effective pKa ≈ 3 for dissociation of the dimer”.

“Acid stress chaperone HdeB H59N (His6-tagged) (Escherichia coli; H59N)” gave a pKa [2] of 3.5.

B1: HdeB D76N (natural protein, E. coli, UniProt P0AET2 30-108, looked up)
chain: ANESAKDMTCQEFIDLNPKAMTPVAWWMLHEETVYKGGDTVTLNETNLTQIPKVIEYCKKNPQKNLYTFKNQASNDLPN
notes: HdeB, E. coli, with D76N; residue numbers count on the precursor; Probably made from the HdeB-His6 construct; also called D67N (as printed in two places)
B1: binds [4].

B2: HdeB H59N (natural protein, E. coli, UniProt P0AET2 30-108, looked up)
chain: B1 chain with H30N, N47D
notes: HdeB, E. coli, with H59N; residue numbers count on the precursor; Probably made from the HdeB-His6 construct; also called H59N mutant
B2: binds [5].

B3: HdeB (methylated) (natural protein, E. coli, UniProt P0AET2 30-108, looked up)
chain: B1 chain with N47D
modifications: reductively methylated lysines: doubly methylated K48, K88 and K93; some modification of K35, K65, K89 and K99; K82 apparently unmodified
notes: HdeB, E. coli; A30 to A102 ordered, six C-terminal residues and the His-tag disordered; residue numbers count on the precursor; A selenomethionine variant, treated identically, was used for phasing only; also called methylated HdeB-His6; HdeB after reductive methylation; source: E. coli MG1655ΔhdeAB, purified (Ni resin, gel filtration), then reductive methylation and gel filtration; not shown: …
With B3 the “stoichiometry N” value [6] was 2.

B4: HdeB-His6 WT (natural protein, E. coli, UniProt P0AET2 30-108, looked up)
chain: B1 chain with N47D
notes: HdeB, E. coli periplasmic acid-stress chaperone; begins at A30; A30 to A102 ordered in the crystal plus six disordered C-terminal residues; residue numbers count on the precursor; Cloned with hdeA (hdeAB genes) in pTrc99A; primers are in the Supplementary Data; also called HdeB WT; wild type; source: E. coli MG1655ΔhdeAB, plasmid pTrcHdeABHis6, 1 mM IPTG, purified (Ni resin, gel filtration); not …
In the case of B4, the Kd [7] is reported as < 1 µM and the “stoichiometry N” value [4] is reported as 2.

B5: HdeB E41Q (natural protein, E. coli, UniProt P0AET2 30-108, looked up)
chain: B1 chain with E12Q, N47D
notes: HdeB, E. coli, with E41Q; residue numbers count on the precursor; The methods speak of 'purified HdeB-His6 WT and E41Q samples'; probably the same construct and host as the wild type; also called E41Q mutant; source: purified mutant protein
B5 was tested, and the Kd [7] was 34 µM.
